Legend:
[1] = biological target: human GPC3 on cells (HepG2 endogenous; CHO-K1 recombinant clones CHOK1-hGPC3.1C3, 2B5, 3E9) (human) (UniProt P51654); test: FACS on HepG2 cells
[2] = biological target: human GPC3 on cells (HepG2 endogenous; CHO-K1 recombinant clones CHOK1-hGPC3.1C3, 2B5, 3E9) (human) (UniProt P51654); test: FACS on HepG2 cells; remark: listed apart in the source
[3] = biological target: human GPC3 (Gln25-His559)-His protein (Acro, Cat. No. GP3-H52H4) (human) (UniProt P51654); test: ELISA; antibody 1 nM
[4] = biological target: monkey GPC3-His protein (Acro, Cat. No. GP3-05225) (monkey) (UniProt A5A6P7); test: ELISA; antibody 1 nM
[5] = biological target: mouse GPC3-His protein (Sino Biological, Cat. No. 50989-M08B) (mouse) (UniProt Q8CFZ4); test: ELISA; antibody 1 nM
[6] = biological target: human GPC3 (Gln25-His559)-His protein (Acro, Cat. No. GP3-H52H4) (human) (UniProt P51654); test: ELISA; antibody 1 nM; remark: listed apart in the source
[7] = biological target: human GPC3 (Gln25-His559)-His protein (Acro, Cat. No. GP3-H52H4) (human) (UniProt P51654); test: ELISA; antibody 10 nM
[8] = biological target: monkey GPC3-His protein (Acro, Cat. No. GP3-05225) (monkey) (UniProt A5A6P7); test: ELISA; antibody 10 nM
[9] = biological target: mouse GPC3-His protein (Sino Biological, Cat. No. 50989-M08B) (mouse) (UniProt Q8CFZ4); test: ELISA; antibody 10 nM
[10] = biological target: human GPC3 (Gln25-His559)-His protein (Acro, Cat. No. GP3-H52H4) (human) (UniProt P51654); test: ELISA; antibody 10 nM; remark: listed apart in the source
[11] = biological target: human GPC3 (Gln25-His559)-His protein (Acro, Cat. No. GP3-H52H4) (human) (UniProt P51654); test: ELISA; antibody 0.1 nM
[12] = biological target: human GPC3 (Gln25-His559)-His protein (Acro, Cat. No. GP3-H52H4) (human) (UniProt P51654); test: ELISA; antibody 100 nM
[13] = biological target: monkey GPC3-His protein (Acro, Cat. No. GP3-05225) (monkey) (UniProt A5A6P7); test: ELISA; antibody 100 nM
[14] = biological target: mouse GPC3-His protein (Sino Biological, Cat. No. 50989-M08B) (mouse) (UniProt Q8CFZ4); test: ELISA; antibody 100 nM
[15] = biological target: human GPC3 (Gln25-His559)-His protein (Acro, Cat. No. GP3-H52H4) (human) (UniProt P51654); test: ELISA; antibody 0.1 nM; remark: listed apart in the source
[16] = biological target: monkey GPC3-His protein (Acro, Cat. No. GP3-05225) (monkey) (UniProt A5A6P7); test: ELISA; antibody 0.1 nM
[17] = biological target: human GPC3 (Gln25-His559)-His protein (Acro, Cat. No. GP3-H52H4) (human) (UniProt P51654); test: ELISA; antibody 100 nM; remark: listed apart in the source
[18] = biological target: human GPC3 (Gln25-His559)-His protein (Acro, Cat. No. GP3-H52H4) (human) (UniProt P51654); test: ELISA; antibody 0.01 nM
[19] = biological target: human GPC3 (Gln25-His559)-His protein (Acro, Cat. No. GP3-H52H4) (human) (UniProt P51654); test: ELISA; antibody 0.01 nM; remark: listed apart in the source
[20] = biological target: mouse GPC3-His protein (Sino Biological, Cat. No. 50989-M08B) (mouse) (UniProt Q8CFZ4); test: ELISA; antibody 0.01 nM
[21] = biological target: human GPC3 (Gln25-His559)-His protein (Acro, Cat. No. GP3-H52H4) (human) (UniProt P51654); test: ELISA; antibody 0.001 nM
[22] = biological target: human GPC3 (Gln25-His559)-His protein (Acro, Cat. No. GP3-H52H4) (human) (UniProt P51654); test: ELISA; antibody 0.001 nM; remark: listed apart in the source
[23] = biological target: monkey GPC3-His protein (Acro, Cat. No. GP3-05225) (monkey) (UniProt A5A6P7); test: ELISA; antibody 0.001 nM
[24] = biological target: mouse GPC3-His protein (Sino Biological, Cat. No. 50989-M08B) (mouse) (UniProt Q8CFZ4); test: ELISA; antibody 0.001 nM
[25] = biological target: human GPC3 (Gln25-His559)-His protein (Acro, Cat. No. GP3-H52H4) (human) (UniProt P51654); test: ELISA; antibody 0.0001 nM
[26] = biological target: human GPC3 (Gln25-His559)-His protein (Acro, Cat. No. GP3-H52H4) (human) (UniProt P51654); test: ELISA; antibody 0.0001 nM; remark: listed apart in the source
[27] = biological target: monkey GPC3-His protein (Acro, Cat. No. GP3-05225) (monkey) (UniProt A5A6P7); test: ELISA; antibody 0.0001 nM
[28] = biological target: mouse GPC3-His protein (Sino Biological, Cat. No. 50989-M08B) (mouse) (UniProt Q8CFZ4); test: ELISA; antibody 0.0001 nM
[29] = biological target: human GPC3 on cells (HepG2 endogenous; CHO-K1 recombinant clones CHOK1-hGPC3.1C3, 2B5, 3E9) (human) (UniProt P51654); test: FACS on CHOK1-hGPC3.1C3 cells
[30] = biological target: human GPC3 on cells (HepG2 endogenous; CHO-K1 recombinant clones CHOK1-hGPC3.1C3, 2B5, 3E9) (human) (UniProt P51654); test: FACS on CHOK1-hGPC3.2B5 cells
[31] = biological target: human GPC3 on cells (HepG2 endogenous; CHO-K1 recombinant clones CHOK1-hGPC3.1C3, 2B5, 3E9) (human) (UniProt P51654); test: FACS on CHOK1-hGPC3.3E9 cells
[32] = biological target: human GPC3 on cells (HepG2 endogenous; CHO-K1 recombinant clones CHOK1-hGPC3.1C3, 2B5, 3E9) (human) (UniProt P51654); test: FACS on CHO-K1-human GPC3 cells
[33] = biological target: monkey GPC3 on HEK293T cells (monkey); test: FACS on HEK293T-monkey GPC3 cells
monkey GPC3 on HEK293T cells (monkey), sequence (chain, as listed by the source limits assumed): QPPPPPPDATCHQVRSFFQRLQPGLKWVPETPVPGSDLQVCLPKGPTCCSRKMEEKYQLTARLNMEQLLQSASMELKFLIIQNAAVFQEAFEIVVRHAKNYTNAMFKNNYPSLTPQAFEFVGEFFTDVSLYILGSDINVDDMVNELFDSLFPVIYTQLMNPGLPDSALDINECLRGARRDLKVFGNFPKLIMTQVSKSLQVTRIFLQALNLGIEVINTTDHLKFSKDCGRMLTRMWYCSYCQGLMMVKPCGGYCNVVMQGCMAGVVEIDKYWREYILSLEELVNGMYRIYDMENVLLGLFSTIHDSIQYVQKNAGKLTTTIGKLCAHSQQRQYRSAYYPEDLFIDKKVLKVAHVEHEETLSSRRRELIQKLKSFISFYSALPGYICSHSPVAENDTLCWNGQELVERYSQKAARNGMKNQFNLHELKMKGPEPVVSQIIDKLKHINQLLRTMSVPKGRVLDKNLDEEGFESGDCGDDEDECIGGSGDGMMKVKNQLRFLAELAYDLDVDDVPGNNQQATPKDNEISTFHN

UniProt A5A6P7, sequence (A5A6P7 other isoform, or with tags, fused parts or gaps limits assumed): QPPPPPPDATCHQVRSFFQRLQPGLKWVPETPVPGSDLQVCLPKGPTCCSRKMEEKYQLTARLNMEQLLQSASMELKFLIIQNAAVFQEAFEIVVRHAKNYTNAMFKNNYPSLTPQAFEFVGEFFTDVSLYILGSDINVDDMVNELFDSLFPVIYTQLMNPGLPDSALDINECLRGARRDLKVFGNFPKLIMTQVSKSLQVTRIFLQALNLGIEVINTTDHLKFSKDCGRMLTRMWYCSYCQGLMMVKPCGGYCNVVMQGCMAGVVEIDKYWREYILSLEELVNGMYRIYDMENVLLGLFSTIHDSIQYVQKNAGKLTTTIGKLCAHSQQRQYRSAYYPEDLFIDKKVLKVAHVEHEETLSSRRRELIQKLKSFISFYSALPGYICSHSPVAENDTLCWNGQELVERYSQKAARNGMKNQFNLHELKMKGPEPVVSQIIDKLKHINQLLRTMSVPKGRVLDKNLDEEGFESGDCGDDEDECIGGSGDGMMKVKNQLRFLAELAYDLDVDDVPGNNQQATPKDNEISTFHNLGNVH
UniProt Q8CFZ4, sequence (Q8CFZ4 25-558 limits assumed): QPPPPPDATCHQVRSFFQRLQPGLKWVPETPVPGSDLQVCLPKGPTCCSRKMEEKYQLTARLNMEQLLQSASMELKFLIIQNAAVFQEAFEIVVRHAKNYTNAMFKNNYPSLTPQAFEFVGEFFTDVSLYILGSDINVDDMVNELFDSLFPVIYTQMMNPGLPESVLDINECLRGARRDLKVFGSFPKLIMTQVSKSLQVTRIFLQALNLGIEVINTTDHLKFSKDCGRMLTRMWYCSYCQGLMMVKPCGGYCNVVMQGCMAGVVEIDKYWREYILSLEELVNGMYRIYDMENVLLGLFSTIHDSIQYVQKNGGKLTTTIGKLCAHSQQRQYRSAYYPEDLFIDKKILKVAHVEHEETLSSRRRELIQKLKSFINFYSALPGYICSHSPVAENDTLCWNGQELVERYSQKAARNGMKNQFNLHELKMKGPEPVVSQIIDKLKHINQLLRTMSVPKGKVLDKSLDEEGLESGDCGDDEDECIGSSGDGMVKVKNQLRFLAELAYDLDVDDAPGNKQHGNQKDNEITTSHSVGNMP

Max MFI [1]: 155
Max MFI [2]: 124
OD450 [3]: 0.048
OD450 [4]: 0.044
OD450 [5]: 0.05
OD450 [6]: 0.06
OD450 [7]: 0.05
OD450 [8]: 0.047
OD450 [9]: 0.055
OD450 [10]: 0.1
OD450 [11]: 0.05
OD450 [12]: 0.072
OD450 [13]: 0.056
OD450 [14]: 0.105
OD450 [15]: 0.06
OD450 [16]: 0.045
OD450 [17]: 0.44
OD450 [18]: 0.048
OD450 [19]: 0.06
OD450 [20]: 0.052
OD450 [21]: 0.048
OD450 [22]: 0.06
OD450 [23]: 0.044
OD450 [24]: 0.051
OD450 [25]: 0.047
OD450 [26]: 0.06
OD450 [27]: 0.048
OD450 [28]: 0.049
Mean fluorescence density of cells [29]: 19.3
Mean fluorescence density of cells [30]: 19.3
Mean fluorescence density of cells [31]: 19.3
Max MFI [32]: 88
Max MFI [33]: 107
Substance: human IgG1 (IgG subtype control) (antibody)

— patent US20240052055A1
